This note sets out measurements from patent US20250057918A1 (YALE UNIVERSITY, published 2025).

Where a chain is given by its changes, count along the chain named.

In test [1] the target is T1, mouse IL-18BP (amino acids 31-194) (mouse, UniProt Q9Z0M9 29-193, biotinylated on the AviTag (BirA ligase)).
T1 construct: Secreted decoy receptor; made in Expi293 cells (H7 signal peptide); the stated range is the same as for the human protein; also called mIL-18BP
T1 sequence: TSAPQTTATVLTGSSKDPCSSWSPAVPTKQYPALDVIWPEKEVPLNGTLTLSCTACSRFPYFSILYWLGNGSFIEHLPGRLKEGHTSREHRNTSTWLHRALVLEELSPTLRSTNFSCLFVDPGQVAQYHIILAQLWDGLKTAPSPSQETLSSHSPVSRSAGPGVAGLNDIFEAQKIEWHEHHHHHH
In words: SPR; KD IL-18BP / KD IL-18Rα; SPR; ratio of two KDs. Here is the method: By contrast, very little binding is observed with the same variants and mIL-18BP (right). (FIG. 11B) Representative surface plasmon resonance sensorgrams between immobilized biotinylated mIL-18BP and the murine DR-IL-18 variants.
Experiments were conducted using a Biacore™ T100 (Protein analysis interaction system) and carried out at 25° C. Biotinylated IL-18Rα or TL-18BP were immobilized onto a Biacore™ biotin capture chip (Series S CAP sensor chip, GE Healthcare) to yield an Rmax of ˜50 RU (IL-18Rα) or ˜10 RU (IL-18BP). Measurements were made with serial dilutions of the IL-18 variants in HEPES buffered Saline-P+ buffer (10 mM HEPES pH 7.4, 150 mM NaCl, 0.005% surfactant P20). The surface was regenerated by three 60-see injections of regeneration buffer (3/4 (v/v) 8M guanidine hydrochloride with 1/4 (v/v) 1M sodium hydroxide). Experiments were performed in multiple channels simultaneously for increased observations. All data were analyzed with the Biacore™ T100 evaluation software version 2.0 with a 1:1 Langmuir binding model.

In test [2] the target is T1, mouse IL-18BP (amino acids 31-194). The test can be described thus: on-yeast isotherms; KD IL-18BP / KD IL-18Rα (10 µM used for NBD); on-yeast isotherms; 10 µM put in for NBD.
Test [3] addresses T2, mouse IL-18Rα ectodomain (amino acids 19-329) (mouse, UniProt Q61098 19-329, biotinylated on the AviTag (BirA ligase)).
T2 construct: range 19-329; Secreted from Expi293 cells (H7 signal peptide); also called mIL-18Rα; Ra
T2 sequence: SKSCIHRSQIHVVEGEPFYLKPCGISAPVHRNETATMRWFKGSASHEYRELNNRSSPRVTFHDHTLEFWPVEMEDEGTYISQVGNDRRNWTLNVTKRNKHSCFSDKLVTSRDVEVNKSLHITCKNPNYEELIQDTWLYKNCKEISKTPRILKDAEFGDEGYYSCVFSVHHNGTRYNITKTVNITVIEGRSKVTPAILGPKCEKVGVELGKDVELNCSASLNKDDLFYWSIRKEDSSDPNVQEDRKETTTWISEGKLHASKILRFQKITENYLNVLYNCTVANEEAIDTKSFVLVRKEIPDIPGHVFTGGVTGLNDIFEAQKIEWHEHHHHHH
The test can be described thus: flow cytometry, mIL-18Rα titrated on yeast-displayed murine IL-18 variant (binding isotherm, %Max).

The target of test [4] is T3, human IL-18BP (amino acids 31-194) (human, UniProt O95998 31-194, biotinylated on the AviTag (BirA ligase) where immobilized or used for staining).
T3 construct: Secreted decoy receptor; made in insect cells (gp67 signal peptide); also called hIL-18BP
T3 sequence: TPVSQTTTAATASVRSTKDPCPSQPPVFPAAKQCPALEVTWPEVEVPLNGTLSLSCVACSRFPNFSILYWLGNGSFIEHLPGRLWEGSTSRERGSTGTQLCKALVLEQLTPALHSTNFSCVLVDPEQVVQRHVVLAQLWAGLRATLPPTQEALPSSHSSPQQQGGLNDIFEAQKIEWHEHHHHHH
The test can be described thus: on-yeast isotherms; KD IL-18BP / KD IL-18Rα (20 µM used for NBD).

B1: mB1 (ligand)
chain: HFGRLHCTTAVIRNINDQVLFVDKRQPVFEDMTDIDQSASEPQTRLIIYGYADSDARAKAVTLSVKDSKMSTLSCKNKIISFEEMDPPENIDDIQSDLIFFQKSVPGHNKMEFESSLYEGHFLACQKEDDAFKLILKKKDENGDKSVMFTVTNLHQS
notes: recombinant with C-terminal hexahistidine tag in SPR
As usually defined, the EC50 (read off the curve) is the concentration that produces a half-maximal response. Low readings indicate greater potency, high ones weaker potency. In the case of B1, the results for the “KD ratio: IL-18BP/IL-18Rα” value in test [1] and in test [2] were 21000 and over 559, respectively. In addition, the “EC50 (read off the curve)” value in test [3] was about 20 nM.

B2: mC1 (ligand)
chain: B1 chain with H1N, G50A, A52V, S54R, D55R, A56L, A58G, S104K, V151L
notes: as for B1
As to B2, the “KD ratio: IL-18BP/IL-18Rα” value in test [1] is 26300; in test [2], over 233.

B3: mCS1 (ligand)
chain: B1 chain with H1N, D55R, A56V, A58G, S104R, V151L
notes: as for B1
Take B3: the entries for the “KD ratio: IL-18BP/IL-18Rα” value in test [1] and in test [2] were 7040 and over 935, respectively. The concentration giving a half-maximal response (EC50 (read off the curve)) in test [3] was about 10 nM.

B4: hA8 (ligand)
chain: YFGKLESRLSVIRNLNDQVLFIDQGNRPLFEDMTDSDCRDNAPRTIFIISKYKDKQPRAQAVTISVKCEKISTLSCENKIISFKEMNPPDNIKDTKSDIIFFQRDVPGHKHKMQFESSSYEGYFLACEKERDLFKLILKKEDELGDRSIMFTIQNED
notes: also called human DR-IL-18 variant A8
On to B4, for which, in test [4], the “KD ratio: IL-18BP/IL-18Rα” value is over 347.

B5: hH3 (ligand)
chain: B4 chain with Y1R, K51T, K55S, A59G, Q60K, I153V
Take B5: the “KD ratio: IL-18BP/IL-18Rα” value in test [4] was over 239.

B6: hB9 (ligand)
chain: RFGKHESKLSVIRNLNDQVLFIDQGNRPLFEDMTDSDCRDNAPRTIFIISTYRDSQPRGKAVTISVKCEKISTLSCENKIISFKEMNPPDNIKDTKSDIIFFERNVPGHKYKMQFESSSYEGYFLACEKERDLFKLILKKEDELGDRSIMFTVQNED
On to B6, for which, in test [4], the “KD ratio: IL-18BP/IL-18Rα” value was over 157.
